± gives the standard deviation of the averaged measurements.
Assays:
Saccharomyces cerevisiae [1] = assay: protein stability index of tFT-peptide fusion (C-terminal peptide) (PSI (0-1 scale)); higher = more stable (slower turnover); details: genetic background: wild type; temperature: 30 C
Saccharomyces cerevisiae [2] = assay: as above
Method: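 MPS profiling in S. cerevisiae of the tFT-X12 degron library: putative degron peptides plus stable controls, 12 aa, fused to the C-terminus of a sfGFP-mCherry timer. Cells are FACS-sorted into 8 mCherry/sfGFP bins and deep-sequenced. PSI runs from 0 (unstable) to 1 (stable). Backgrounds are wild type, das1Δ and doa10Δ at 30 °C, and wild type, das1Δ, cdc34-1 and cdc53-1 at 37 °C; 2-3 technical replicates each.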

[3] = genetic background: cdc34-1, temperature: 37 C
[4] = genetic background: cdc53-1, temperature: 37 C
[5] = genetic background: das1 deletion, temperature: 30 C
[6] = genetic background: das1 deletion, temperature: 37 C
[7] = genetic background: doa10 deletion, temperature: 30 C
[8] = genetic background: wild type, temperature: 30 C
[9] = genetic background: wild type, temperature: 37 C
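Further: PSI is a weighted mean of sequencing reads over stability bins, variants kept only with over 10 reads, mCherry proximal and sfGFP distal, peptide attached via GGGS linker.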

Sequence | protein stability index (Saccharomyces cerevisiae [1]) | protein stability index (Saccharomyces cerevisiae [2]; [3]) | protein stability index (Saccharomyces cerevisiae [2]; [4]) | protein stability index (Saccharomyces cerevisiae [2]; [5]) | protein stability index (Saccharomyces cerevisiae [2]; [6]) | protein stability index (Saccharomyces cerevisiae [2]; [7]) | protein stability index (Saccharomyces cerevisiae [2]; [8]) | protein stability index (Saccharomyces cerevisiae [2]; [9])
FGVFLLWCVLLL | 0.274 ± 0.077 | 0.226 ± 0.0076 | 0.297 ± 0.017 | 0.213 ± 0.023 | 0.339 ± 0.013 | 0.217 ± 0.01 | 0.191 ± 0.013 | 0.352 ± 0.075
FIAVSLSVFLVF | 0.234 ± 0.011 | 0.159 ± 0.015 | 0.286 ± 0.0034 | 0.189 ± 0.022 | 0.322 ± 0.012 | 0.1758 ± 0.00094 | 0.181 ± 0.024 | 0.287 ± 0.003
FIFLFVALFCVF | 0.353 ± 0.067 | 0.31 ± 0.039 | 0.343 ± 0.0083 | 0.327 ± 0.017 | 0.404 ± 0.014 | 0.328 ± 0.012 | 0.29 ± 0.021 | 0.365 ± 0.036
FILIFLGILSCC | 0.378 ± 0.04 | 0.409 ± 0.0092 | 0.453 ± 0.058 | 0.356 ± 0.026 | 0.463 ± 0.014 | 0.312 ± 0.0014 | 0.325 ± 0.025 | 0.4149 ± 0.0031
FIYSVFFYSYWF | 0.363 ± 0.016 | 0.36 ± 0.043 | 0.467 ± 0.033 | 0.287 ± 0.015 | 0.467 ± 0.0063 | 0.318 ± 0.025 | 0.272 ± 0.013 | 0.429 ± 0.017
FLFLESFLFFYL | 0.499 ± 0.02 | 0.5 ± 0.052 | 0.4797 ± 0.0046 | 0.418 ± 0.03 | 0.5698 ± 0.0026 | 0.502 ± 0.0079 | 0.411 ± 0.017 | 0.525 ± 0.055
FLFVFLGVYGHV | 0.404 ± 0.012 | 0.281 ± 0.02 | 0.409 ± 0.018 | 0.271 ± 0.044 | 0.494 ± 0.027 | 0.27 ± 0.0047 | 0.288 ± 0.029 | 0.46 ± 0.0054
FLGPYTPGMYLA | 0.359 ± 0.037 | 0.656 ± 0.031 | 0.7393 ± 0.0022 | 0.658 ± 0.015 | 0.7435 ± 0.0044 | 0.208 ± 0.011 | 0.258 ± 0.019 | 0.482 ± 0.0086
FLISVRFVLILN | 0.173 ± 0.024 | 0.169 ± 0.027 | 0.186 ± 0.012 | 0.175 ± 0.021 | 0.278 ± 0.01 | 0.143 ± 0.0081 | 0.135 ± 0.0052 | 0.208 ± 0.0085
FLLFLPLLFFFL | 0.3904 ± 0.001 | 0.414 ± 0.037 | 0.396 ± 0.0095 | 0.396 ± 0.024 | 0.456 ± 0.013 | 0.4578 ± 0.0037 | 0.377 ± 0.018 | 0.4384 ± 0.0031
FLLHLVAHFSFL | 0.527 ± 0.044 | 0.544 ± 0.014 | 0.571 ± 0.0063 | 0.517 ± 0.0071 | 0.531 ± 0.0066 | 0.473 ± 0.027 | 0.472 ± 0.017 | 0.503 ± 0.003
FLLIVSSVSFYL | 0.342 ± 0.052 | 0.209 ± 0.016 | 0.2981 ± 0.00045 | 0.213 ± 0.024 | 0.3885 ± 0.0014 | 0.177 ± 0.0069 | 0.207 ± 0.021 | 0.346 ± 0.0035
FLLLSCLVRRSF | 0.4628 ± 0.00075 | 0.508 ± 0.054 | 0.6 ± 0.018 | 0.454 ± 0.017 | 0.611 ± 0.01 | 0.404 ± 0.014 | 0.429 ± 0.0061 | 0.549 ± 0.018
FLRFVFSFTFFV | 0.321 ± 0.0054 | 0.387 ± 0.0054 | 0.382 ± 0.019 | 0.408 ± 0.031 | 0.411 ± 0.0061 | 0.265 ± 0.0046 | 0.24 ± 0.028 | 0.3144 ± 0.0024
FLVGVARCPFLV | 0.361 ± 0.012 | 0.632 ± 0.069 | 0.7 ± 0.015 | 0.587 ± 0.018 | 0.725 ± 0.053 | 0.244 ± 0.021 | 0.254 ± 0.034 | 0.401 ± 0.012
FLVLLFCLFFCF | 0.462 ± 0.026 | 0.463 ± 0.053 | 0.447 ± 0.021 | 0.43 ± 0.024 | 0.552 ± 0.015 | 0.524 ± 0.007 | 0.43 ± 0.033 | 0.4952 ± 0.0042
FMCGWRMLVSVS | 0.0594 ± 0.023 | 0.0379 ± 0.032 | 0.0371 ± 0.0077 | 0.0474 ± 0.016 | 0.0676 ± 0.027 | 0.0307 ± 0.0023 | 0.0292 ± 0.011 | 0.045 ± 0.019
FPGLPVFFPPPL | 0.726 ± 0.015 | 0.707 ± 0.052 | 0.766 ± 0.015 | 0.689 ± 0.026 | 0.769 ± 0.012 | 0.709 ± 0.039 | 0.703 ± 0.011 | 0.731 ± 0.012
FPRLERVAVMAR | 0.25 ± 0.011 | 0.117 ± 0.035 | 0.127 ± 0.035 | 0.177 ± 0.032 | 0.244 ± 0.0086 | 0.145 ± 0.0069 | 0.167 ± 0.025 | 0.221 ± 0.031
FQILLRFFRSVA | 0.324 ± 0.017 | 0.5907 ± 0.0037 | 0.657 ± 0.025 | 0.551 ± 0.022 | 0.612 ± 0.0079 | 0.189 ± 0.003 | 0.206 ± 0.029 | 0.4 ± 0.017

Sequence | protein stability index (Saccharomyces cerevisiae [1]) | protein stability index (Saccharomyces cerevisiae [2]; [3]) | protein stability index (Saccharomyces cerevisiae [2]; [4]) | protein stability index (Saccharomyces cerevisiae [2]; [5]) | protein stability index (Saccharomyces cerevisiae [2]; [6]) | protein stability index (Saccharomyces cerevisiae [2]; [7]) | protein stability index (Saccharomyces cerevisiae [2]; [8]) | protein stability index (Saccharomyces cerevisiae [2]; [9])
FRAKRTVFQRNS | 0.441 ± 0.012 | 0.671 ± 0.044 | 0.737 ± 0.039 | 0.668 ± 0.028 | 0.718 ± 0.01 | 0.2585 ± 0.0011 | 0.289 ± 0.0073 | 0.526 ± 0.021
FRFFRPSFRFFC | 0.2 ± 0.06 | 0.588 ± 0.015 | 0.713 ± 0.021 | 0.624 ± 0.0092 | 0.7518 ± 0.0026 | 0.107 ± 0.014 | 0.118 ± 0.0071 | 0.221 ± 0.033
FRFPCSILMTLL | 0.258 ± 0.028 | 0.578 ± 0.011 | 0.6111 ± 0.0035 | 0.538 ± 0.021 | 0.622 ± 0.026 | 0.196 ± 0.0043 | 0.197 ± 0.013 | 0.297 ± 0.036
FRQEVLHWRQHS | 0.342 ± 0.077 | 0.622 ± 0.064 | 0.712 ± 0.032 | 0.633 ± 0.035 | 0.727 ± 0.028 | 0.167 ± 0.048 | 0.145 ± 0.035 | 0.332 ± 0.015
FRWLAFALLFGC | 0.245 ± 0.0079 | 0.416 ± 0.011 | 0.477 ± 0.027 | 0.38 ± 0.012 | 0.495 ± 0.025 | 0.1758 ± 0.00032 | 0.166 ± 0.018 | 0.348 ± 0.0068
FSARPFLYSFRP | 0.028 ± 0.0092 | 0.694 ± 0.024 | 0.743 ± 0.0082 | 0.667 ± 0.025 | 0.7416 ± 0.0052 | 0.653 ± 0.037 | 0.654 ± 0.0083 | 0.711 ± 0.0089
FSCEFKMSCLKS | 0.507 ± 0.011 | 0.649 ± 0.04 | 0.701 ± 0.0097 | 0.601 ± 0.023 | 0.679 ± 0.016 | 0.474 ± 0.015 | 0.488 ± 0.029 | 0.605 ± 0.017
FSIFFIIEFVGT | 0.242 ± 0.12 | 0.179 ± 0.038 | 0.211 ± 0.0069 | 0.209 ± 0.015 | 0.374 ± 0.013 | 0.157 ± 0.011 | 0.187 ± 0.028 | 0.324 ± 0.022
FSSYLSALLIVV | 0.246 ± 0.012 | 0.102 ± 0.047 | 0.1279 ± 0.00017 | 0.176 ± 0.017 | 0.242 ± 0.0039 | 0.155 ± 0.0065 | 0.167 ± 0.029 | 0.214 ± 0.019
FSYVGFFFLLGF | 0.414 ± 0.016 | 0.417 ± 0.051 | 0.471 ± 0.0073 | 0.346 ± 0.021 | 0.494 ± 0.0069 | 0.392 ± 0.049 | 0.352 ± 0.025 | 0.467 ± 0.0053
FTYCIVFFFSRL | 0.457 ± 0.014 | 0.428 ± 0.024 | 0.537 ± 0.038 | 0.383 ± 0.038 | 0.571 ± 0.045 | 0.379 ± 0.011 | 0.391 ± 0.03 | 0.494 ± 0.021
FTYFFFVRVLLV | 0.187 ± 0.0053 | 0.11 ± 0.045 | 0.14 ± 0.01 | 0.156 ± 0.031 | 0.2772 ± 0.00032 | 0.11 ± 0.0067 | 0.118 ± 0.0091 | 0.129 ± 0.0084
FVCSSVFVVLLF | 0.45 ± 0.044 | 0.349 ± 0.017 | 0.423 ± 0.023 | 0.295 ± 0.029 | 0.4769 ± 0.001 | 0.264 ± 0.017 | 0.294 ± 0.054 | 0.464 ± 0.026
FVFLCLLCISSF | 0.278 ± 0.012 | 0.202 ± 0.0059 | 0.286 ± 0.011 | 0.214 ± 0.027 | 0.355 ± 0.006 | 0.193 ± 0.01 | 0.2 ± 0.03 | 0.3152 ± 0.0017
FVGCFVFYLFLL | 0.417 ± 0.013 | 0.422 ± 0.023 | 0.479 ± 0.016 | 0.418 ± 0.031 | 0.5184 ± 0.0036 | 0.394 ± 0.011 | 0.362 ± 0.035 | 0.458 ± 0.027
FVRVFMASIIWC | 0.452 ± 0.0082 | 0.478 ± 0.032 | 0.487 ± 0.034 | 0.395 ± 0.029 | 0.508 ± 0.024 | 0.391 ± 0.012 | 0.376 ± 0.036 | 0.518 ± 0.013
FVVFAFGVLPVK | 0.466 ± 0.011 | 0.496 ± 0.005 | 0.5131 ± 0.0027 | 0.389 ± 0.028 | 0.552 ± 0.012 | 0.361 ± 0.019 | 0.388 ± 0.039 | 0.514 ± 0.0089
FVVRVVCRLGFF | 0.325 ± 0.015 | 0.2226 ± 0.0011 | 0.338 ± 0.014 | 0.218 ± 0.027 | 0.374 ± 0.02 | 0.182 ± 0.0026 | 0.215 ± 0.012 | 0.3396 ± 0.0013
FWFSFLLSGVCC | 0.347 ± 0.04 | 0.24 ± 0.031 | 0.171 ± 0.013 | 0.272 ± 0.029 | 0.29 ± 0.0029 | 0.257 ± 0.012 | 0.268 ± 0.022 | 0.266 ± 0.016

From the supplement of paper PMC10724198
